The source of these data is patent publication US10442866 (BEIJING MABWORKS BIOTECH, dated 2019).

Where a chain is given by its changes, count along the chain named. Where two headings read alike, the source gives them in different places.

Assay [1] concerns the target T1, recombinant rhesus OX40-his (Sino Biological, Cat#:90846-C08H) (rhesus monkey, UniProt P43489 29-214 (human entry)).
T1 construct: bought protein; also called monkey OX40-his; rhOX40-his; not shown: His tag
T1 chain: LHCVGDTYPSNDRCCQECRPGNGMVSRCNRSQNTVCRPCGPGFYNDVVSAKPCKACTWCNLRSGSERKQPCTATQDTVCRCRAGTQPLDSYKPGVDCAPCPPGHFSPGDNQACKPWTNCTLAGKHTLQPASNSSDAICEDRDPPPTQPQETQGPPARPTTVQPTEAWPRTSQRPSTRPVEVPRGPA
The assay can be described thus: ELISA on coated rhesus OX40-His, OD450.

Assay [2] concerns the target T2, murine OX40-His (Crown, Cat#: E3350-B1707) (mouse, UniProt P47741 20-211).
T2 construct: bought protein; also called mouse OX40-his; muOX40-his; not shown: His tag
T2 sequence: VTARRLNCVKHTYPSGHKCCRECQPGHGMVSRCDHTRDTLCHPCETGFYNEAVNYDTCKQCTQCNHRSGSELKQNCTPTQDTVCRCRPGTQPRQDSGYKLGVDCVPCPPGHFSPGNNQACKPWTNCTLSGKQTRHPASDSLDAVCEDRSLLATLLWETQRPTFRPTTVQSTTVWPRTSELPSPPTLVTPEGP
The assay can be described thus: ELISA on coated mouse OX40-His, OD450. Background: An ELISA detects its analyte on a solid surface through an enzyme-linked reagent.

In assay [3] the target is T3, rhesus OX40 expressed on HEK293A cells (rhesus, UniProt P43489 29-277 (human entry)).
T3 construct: also called HEK293A/rhOX40; HEK293A/rhesusOX40 cells
T3 chain: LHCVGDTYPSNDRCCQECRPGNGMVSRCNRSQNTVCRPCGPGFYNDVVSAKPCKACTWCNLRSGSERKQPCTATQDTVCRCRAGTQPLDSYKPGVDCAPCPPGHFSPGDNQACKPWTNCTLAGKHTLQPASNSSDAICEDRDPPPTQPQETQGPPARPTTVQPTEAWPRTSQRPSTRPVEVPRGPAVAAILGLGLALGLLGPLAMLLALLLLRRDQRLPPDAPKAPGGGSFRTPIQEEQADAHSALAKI
Briefly: FACS on HEK293A/rhesus OX40 cells, MFI (panel without title; monkey OX40 by the legend). The procedure:
Briefly, 10^5 HEK293A cells were seeded into each well of the 96-well plates and serially diluted anti-OX40 antibodies were added to the plates. After incubated at 4° C. for 1 hour, plates were washed 3 times with PBST. Then, an APC coupled Goat Anti-Mouse IgG (BioLegen, US, Cat#: 405308) diluted 500× was added to the plates. After incubation at 4° C. for 1 hour, the plates were washed with PBS for 3 times and then cell fluorescence was monitored using a FACS machine (BD).
Example 15 Humanized Anti-OX40 Antibodies Bound to Human or Rhesus OX40 Expressed on HEK293A Cells The humanized anti-OX40 antibodies were also tested for their ability of binding to HEK293A/huOX40 cells or HEK293A/rhOX40 cells, following the FACS analysis protocol as described in Example 5.

For assay [4], the target named is T4, recombinant human OX40-his (Sino Biological, Cat#:10481-H03H) (human, UniProt P43489 29-214).
T4 construct: bought protein; also called hOX40-his; not shown: His tag
T4 sequence: T1 chain with Q16H, N29S, A50S, A55P, P70L, P145A, T159I, R173G, R183G, P185R
Briefly: ELISA on coated human OX40-his, OD450.

Assay [5] deals with T2, murine OX40-His (Crown, Cat#: …). Briefly: ELISA on coated mouse OX40-His, OD450. This is another data set of the same source.
The target in assay [6] is T4, recombinant human OX40-his (Sino …). The assay can be described thus: ELISA on coated human OX40-his, OD450. The source holds these as a separate data set.
The target is the same in assay [7]. Briefly: ELISA on coated human OX40-His, OD450.
The target of assay [8] is T1, recombinant rhesus OX40-his (Sino …). Briefly: ELISA on coated rhesus OX40-His, OD450.

B1: 68C8-VH2VL3 (antibody, human IgG1, kappa, V domains shown)
VH: QVQLVQSGAEVKKPGASVKVSCKVSGDTFTSYWITWVRQRPGKGLEWMGDIHPGSGSTNNNEKFKNRVTMTVDTSTDTAYMELSSLRSEDTAVYYCATLRPYYFVYWGQGTLVTVSS
VL: DIQMTQSPSSLSASVGDRVTITCRASQDISNYLNWYQQKPGKTVKLLIYYTSRLLSGVPSRFSGSGSGTDYTLTISSLQPEDFATYFCQQGNTLPLTFGQGTRLEIKR
notes: humanized; also called 68C8-H2L3; 68C8H2L3
For orientation: EC50 (read off the curve) means the concentration that produces a half-maximal response. B1: the binding result is on record as “binds” in assay [1], “no binding (tested: 10000 ng/ml (log 4))” in assay [2] and “binds” in assay [3]. Besides, the “EC50 (read off the curve)” value in assay [4] is around 3 ng/mL.

B2: 71H8-VH2VL3 (antibody, human IgG1, kappa, V domains shown)
VH: B1 VH with D27Y, H52Y, N60Q, N66S
VL: B1 VL
notes: humanized; also called 71H8-H2L3; 71H8H2L3
As to B2, the binding result in assay [5] is “no binding (tested: 10000 ng/ml (log 4))”; in assay [3], “binds”. Moreover, the “EC50 (read off the curve)” value in assay [6] was around 7 ng/mL; in assay [7] it was around 3 ng/mL; in assay [8], around 3 ng/mL.
